Test results taken from patent US20140248254.

Target: G-Actin protein

B1: Mus AChE protein (AChE 1-548AA, mouse) (protein)
chain: EGREDPQLLVRVRGGQLRGIRLKAPGGPVSAFLGIPFAEPPVGSRRFMPPEPKRPWSGVLDATTFQNVCYQYVDTLYPGFEGTEMWNPNRELSEDCLYLNVWTPYPRPASPTPVLIWIYGGGFYSGAASLDVYDGRFLAQVEGAVLVSMNYRVGTFGFLALPGSREAPGNVGLLDQRLALQWVQENIAAFGGDPMSVTLFGESAGAASVGMHILSLPSRSLFHRAVLQSGTPNGPWATVSAGEARRRATLLARLVGCPPGGAGGNDTELIACLRTRPAQDLVDHEWHVLPQESIFRFSFVPVVDGDFLSDTPEALINTGDFQDLQVLVGVVKDEGSYFLVYGVPGFSKDNESLISRAQFLAGVRIGVPQASDLAAEAVVLHYTDWLHPEDPTHLRDAMSAVVGDHNVVCPVAQLAGRLAAQGARVYAYIFEHRASTLTWPLWMGVPHGYEIEFIFGLPLDPSLNYTTEERIFAQRLMKYWTNFARTGDPNDPRDSKSPQWPPYTTAAQQYVSLNLKP
  cleaving of plasmid DNA by AChE (agarose gel) after pre-incubation with G-Actin: it almost had no effect on cleaving ability of AChE on DNA
